Target: HKU5-20s trimeric ectodomain with 2P stabilizing mutations (merbecovirus HKU5-20s (host Pipistrellus abramus))
Test: cryo-EM structure

Substance: HKU5-20s trimeric ectodomain with 2P stabilizing mutations (domain or fragment)
- stoichiometry N: 3
